Test results: US7247611 (University of Pennsylvania, dated 2007)

Target: T1, single chain urokinase-type plasminogen activator (UniProt P00749 21-431, radiolabeled with 125I (iodobeads) in the binding assays)
T1 construct: scuPA alone, without peptide; also called scuPA; recombinant scuPA
Experiment: 125I-scuPA on LM-TK- cells with peptide (FIG. 1A); indirect read-out of the peptide acting on scuPA
Method: The cells were washed four times with binding buffer, solubilized in 0.1 N NaOH, and the cell extract was assessed for radioactivity. […] Assays were repeated at least three times, and data presented herein represent the mean and standard deviation.

B1: peptide EEIIMR (SEQ ID NO: 5) (peptide)
peptide: EEIIMR
notes: Synthetic variant of EEIIMD with Arg at the carboxyl terminus; also called control peptide EEIIMR
scuPA-binding-promoting activity relative to peptide EEIIMD: ~20%
